Assay results taken from patent US20210101953A1 (ZHEJIANG K2 ONCOLOGY, published 2021).

T1: EpCAM protein on Skov3 cells (UniProt P16422 24-314, limits assumed)
T1 construct: whole, on cells; also called cellular level EpCAM; epithelial cell adhesion molecule
T1 sequence (looked up): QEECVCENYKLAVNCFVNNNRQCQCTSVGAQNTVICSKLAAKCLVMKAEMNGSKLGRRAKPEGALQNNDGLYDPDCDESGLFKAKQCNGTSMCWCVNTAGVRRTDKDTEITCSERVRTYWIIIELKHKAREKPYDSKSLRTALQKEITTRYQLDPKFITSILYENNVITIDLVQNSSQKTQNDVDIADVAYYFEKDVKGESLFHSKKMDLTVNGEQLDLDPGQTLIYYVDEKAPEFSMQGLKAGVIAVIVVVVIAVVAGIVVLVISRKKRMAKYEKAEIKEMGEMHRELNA

T2: recombinant human EpCAM protein (Sino biologics, Product Number 10694-H08H) (human, UniProt P16422 24-265)
T2 construct: Bought protein coated on the ELISA plate at 1 ug/ml
T2 sequence (looked up): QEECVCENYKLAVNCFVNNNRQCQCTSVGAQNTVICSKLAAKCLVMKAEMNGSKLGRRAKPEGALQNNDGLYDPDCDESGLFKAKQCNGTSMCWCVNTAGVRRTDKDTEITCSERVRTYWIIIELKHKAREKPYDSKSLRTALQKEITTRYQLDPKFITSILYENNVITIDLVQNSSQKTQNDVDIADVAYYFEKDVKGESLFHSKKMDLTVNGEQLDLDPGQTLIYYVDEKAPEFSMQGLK


What was measured:
[1] = biological target: T1, EpCAM protein on Skov3 cells; assay: staining of fixed Skov3 cells, detected with anti-human IL-2 antibody and DAB
Protocol: Skov3 cells have adherent growth in a 24-pore plate for 24 hours and are fixed for 10 minutes using 4% PFA (paraformaldehyde); 5% BSA is added to block non-specific antigens; a primary antibody of anti-human IL-2 is added for incubation for 1 hour; after washing is performed 3 times with PBST, a secondary antibody is added; after incubation is performed for 1 hour, DAB (diaminobenzidine) is added for color development; and after washing is performed with PBS, photographing is performed under a bright-field microscope.

[2] = biological target: T2, recombinant human EpCAM protein (Sino …); assay: ELISA on coated recombinant human EpCAM, bound protein detected by its IL-2 part with an IL-2 ELISA kit
Protocol: 2. […] [0069] ii. IL-2 level detection: an IL-2 ELISA commercial kit (Manufacturer: Biolegend; Product Number 431801) is adopted; the brief steps include adding a primary antibody of anti-human IL-2, incubating for 1 hour and then adding a horseradish peroxidase labeled secondary antibody to obtain a […] signal by TMB color development. [0070] iii. Data processing: a standard curve is obtained by using an IL-2 standard product included in the kit, and the IL-2 signal level corresponding to the amount of protein bound to EpCAM is calculated, which represents the level of the protein bound to EpCAM.

binding result [1]	binding result [2]	Binder
binds	binds	fusion protein EPIL-2-2303407 of the anti-EpCAM single-chain antibody and IL-2 (other, Single chain; Expressed in HEK293 cells and purified on Ni-Sepharose) APTSSSTKKTQLQLEHLLLDLQMILNGINNYKNPKLTRMLTFKFYMPKKATELKHLQCLEEELKPLEEALNLAPSKNFHLRPRDLISNINVIVLELKGSETTFMCEYADETATIVEFLNRWITFSQSTISTLTGGGGSGGGGSGGGGSGGGGSEVQLLEQSGAELARPGASVKLSCKASGYTFTNYGLSWVKQRPGQVLEWIGEVYPRIGNAYYNEKFKGKATLTADKSSSTASMELRSLTSEDSAVYFCARRGSYDTNYDWYFDVWGQGTTVTVSSGGGGSGGGGSGGGGSELVMTQTPLSLPVSLGDQASISCRSSQSLVHSNGNTYLHWYLQKPGQSPKLLIYKVSNRFSGVPDRFSGSGSGTDFTLKISRVEAEDLGVYFCSQSTHVPYTFGGGTKLEIKHHHHHH
binds	binds	fusion protein EPIL-2-2303301 of the anti-EpCAM single-chain antibody and IL-2 (other, Single chain; Expressed in HEK293 cells and purified on Ni-Sepharose) APTSSSTKKTQLQLEHLLLDLQMILNGINNYKNPKLTRMLTFKFYMPKKATELKHLQCLEEELKPLEEALNLAPSKNFHLRPRDLISNINVIVLELKGSETTFMCEYADETATIVEFLNRWITFSQSTISTLTGGGGSGGGGSGGGGSGGGGSEVQLLEQSGAELVKPGASVKISCKASGYAFTNYWLGWVKQRPGHGLEWIGDLFPGSGNTHYNERFRGKATLTADKSSSTAFMQLSSLTSEDSAVYFCARLRNWDEAMDYWGQGTTVTVSSGGGGSGGGGSGGGGSELVMTQSPSYLAASPGETITINCRASKSISKYLAWYQEKPGKTNKLLIYSGSTLQSGIPSRFSGSGSGTDFTLTISSLEPEDFAMYYCQQHNEYPYTFGGGTKLEIKHHHHHH
